Reference: US20110159022A1 (published 2011)

What was measured:
HLA-DR7 (DRB1*0701) = HLA-DR7 (DRB1*0701) (human); assay: competition ELISA, tracer biotin-YKL
HLA-DRB4 (DRB4*0101) = HLA-DRB4 (DRB4*0101) (human); assay: competition ELISA, tracer biotin-E2/E168
HLA-DR1 (DRB1*0101) = HLA-DR1 (DRB1*0101) (human); assay: competition ELISA, tracer biotin-HA 306-318
HLA-DR11 (DRB1*1101) = HLA-DR11 (DRB1*1101) (human); assay: competition ELISA, tracer biotin-HA 306-318
HLA-DRB5 (DRB5*0101) = HLA-DRB5 (DRB5*0101) (human); assay: competition ELISA, tracer biotin-HA 306-318
HLA-DRB3 (DRB3*0101) = HLA-DRB3 (DRB3*0101) (human); assay: competition ELISA, tracer biotin-LOL 191-210
HLA-DP401 (DPB1*0401) = HLA-DP401 (DPB1*0401) (human, UniProt P20036 29-222, limits assumed); assay: competition ELISA, tracer biotin-Oxy 271-287
HLA-DP402 (DPB1*0402) = molecular target: T1, HLA-DP402 (DPB1*0402) (human, UniProt P20036 29-222, limits assumed); assay: competition ELISA, tracer biotin-Oxy 271-287
T1 construct: also called DP*0402

HLA-DR4 (DRB1*0401) = HLA-DR4 (DRB1*0401) (human); assay: competition ELISA, tracer biotin-HA 306-318
HLA-DR15 (DRB1*1501) = HLA-DR15 (DRB1*1501) (human); assay: competition ELISA, tracer biotin-A3 152-166
HLA-DR13 (DRB1*1301) = HLA-DR13 (DRB1*1301) (human); assay: competition ELISA, tracer biotin-B1 21-36
HLA-DR3 (DRB1*0301) = HLA-DR3 (DRB1*0301) (human); assay: competition ELISA, tracer biotin-MT 2-16

Binder | relative binding activity (HLA-DR7 (DRB1*0701)) | relative binding activity (HLA-DRB4 (DRB4*0101)) | relative binding activity (HLA-DR1 (DRB1*0101)) | relative binding activity (HLA-DR11 (DRB1*1101)) | relative binding activity (HLA-DRB5 (DRB5*0101)) | relative binding activity (HLA-DRB3 (DRB3*0101)) | relative binding activity (HLA-DP401 (DPB1*0401)) | relative binding activity (HLA-DP402 (DPB1*0402)) | relative binding activity (HLA-DR4 (DRB1*0401)) | relative binding activity (HLA-DR15 (DRB1*1501)) | relative binding activity (HLA-DR13 (DRB1*1301)) | relative binding activity (HLA-DR3 (DRB1*0301))
MQHRGFLLLTLLALL (synthetic 15-mer of the human midkine precursor; also called peptide 1-15) [MDK 1-15] | 49 IC50 ratio to reference peptide | 204 IC50 ratio to reference peptide | 21 IC50 ratio to reference peptide | 7 IC50 ratio to reference peptide | 161 IC50 ratio to reference peptide | 267 IC50 ratio to reference peptide | 20 IC50 ratio to reference peptide | 19 IC50 ratio to reference peptide |  |  |  | 
CKYKFENWGACDGGT (also called MDK13) [MDK 84-98] |  |  |  |  | 292 IC50 ratio to reference peptide |  | 52 IC50 ratio to reference peptide | 49 IC50 ratio to reference peptide | 362 IC50 ratio to reference peptide |  |  | 
LTLLALLALTSAVAK (synthetic 15-mer of the human midkine precursor; also called MDK3; peptide 9-23) [MDK 9-23] | 13 IC50 ratio to reference peptide |  | 0.2 IC50 ratio to reference peptide | 0.3 IC50 ratio to reference peptide | 2 IC50 ratio to reference peptide |  | 94 IC50 ratio to reference peptide | 29 IC50 ratio to reference peptide | 1 IC50 ratio to reference peptide | 5 IC50 ratio to reference peptide |  | 
GTLKKARYNAQCQET (also called MDK16) [MDK 105-119] |  |  | 97 IC50 ratio to reference peptide | 1010 IC50 ratio to reference peptide |  |  |  |  | 492 IC50 ratio to reference peptide |  |  | 
QTQRIRCRVPCNWKK (also called MDK9) [MDK 64-78] | 2070 IC50 ratio to reference peptide | 1160 IC50 ratio to reference peptide |  | 504 IC50 ratio to reference peptide | 61 IC50 ratio to reference peptide |  |  |  | 558 IC50 ratio to reference peptide |  |  | 
KDKVKKGGPGSECAE (also called MDK6) [MDK 25-39] |  |  | 1250 IC50 ratio to reference peptide |  |  |  |  |  |  |  |  | 
GTKVRQGTLKKARYN (also called MDK15) [MDK 99-113] |  |  | 3000 IC50 ratio to reference peptide |  | 215 IC50 ratio to reference peptide |  |  |  |  |  | 74 IC50 ratio to reference peptide | 
LLALTSAVAKKKDKV (synthetic 15-mer of the human midkine precursor; also called MDK4; peptide 14-28) [MDK 14-28] | 590 IC50 ratio to reference peptide |  | 34 IC50 ratio to reference peptide | 48 IC50 ratio to reference peptide | 0.1 IC50 ratio to reference peptide |  |  |  | 401 IC50 ratio to reference peptide |  | 45 IC50 ratio to reference peptide | 
KEFGADCKYKFENWG (also called MDK12) [MDK 78-92] |  |  |  | 800 IC50 ratio to reference peptide | 114 IC50 ratio to reference peptide | 226 IC50 ratio to reference peptide | 167 IC50 ratio to reference peptide | 378 IC50 ratio to reference peptide | 457 IC50 ratio to reference peptide |  |  | 1 IC50 ratio to reference peptide
ETIRVTKPCTPKTKA (also called MDK18) [MDK 119-133] | 819 IC50 ratio to reference peptide |  | 2 IC50 ratio to reference peptide | 763 IC50 ratio to reference peptide | 26 IC50 ratio to reference peptide |  |  |  | 1290 IC50 ratio to reference peptide |  |  | 
AEWAWGPCTPSSKDC (also called MDK7) [MDK 38-52] |  |  | 1300 IC50 ratio to reference peptide | 923 IC50 ratio to reference peptide |  |  |  | 239 IC50 ratio to reference peptide | 1860 IC50 ratio to reference peptide |  |  | 
CRVPCNWKKEFGADC (also called MDK10) [MDK 70-84] |  |  | 53 IC50 ratio to reference peptide |  |  | 621 IC50 ratio to reference peptide | 7 IC50 ratio to reference peptide |  | 1560 IC50 ratio to reference peptide |  |  | 
CNWKKEFGADCKYKF (also called MDK11) [MDK 74-88] |  |  | 333 IC50 ratio to reference peptide | 1230 IC50 ratio to reference peptide | 714 IC50 ratio to reference peptide | 877 IC50 ratio to reference peptide |  |  |  |  |  | 2 IC50 ratio to reference peptide
ARYNAQCQETIRVTK (synthetic 15-mer of the human midkine precursor; also called MDK17) [MDK 110-124] |  |  | 10 IC50 ratio to reference peptide | 69 IC50 ratio to reference peptide | 15 IC50 ratio to reference peptide |  |  |  | 6 IC50 ratio to reference peptide |  |  | 
ENWGACDGGTGTKVR (also called MDK14) [MDK 89-103] |  |  | 1460 IC50 ratio to reference peptide |  |  | 2330 IC50 ratio to reference peptide |  |  |  |  |  | 
RGFLLLTLLALLALT (synthetic 15-mer of the human midkine precursor; also called MDK2; peptide 4-18) [MDK 4-18] | 20 IC50 ratio to reference peptide | 65 IC50 ratio to reference peptide | 21 IC50 ratio to reference peptide | 94 IC50 ratio to reference peptide | 46 IC50 ratio to reference peptide | 37 IC50 ratio to reference peptide | 6 IC50 ratio to reference peptide | 18 IC50 ratio to reference peptide |  | 19 IC50 ratio to reference peptide |  | 
